How the values were obtained:
[1] = target: T1, human EGFR-Fc fusion protein (human, UniProt P00533 25-645); assay: SPR single-cycle, VHH over amine-coupled human EGFR-Fc
T1 construct: Bought; not shown: Fc part of the bought fusion

[2] = target: T1, human EGFR-Fc fusion protein; assay: SPR, VHH over human EGFR-Fc;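 further: Single-cycle kinetics on Biacore T200 at 25 °C in HBS-EP, monomeric VHHs at 0.6–50 nM flowed over immobilized EGFR, 180 s association, 600 s dissociation, ethanolamine-blocked reference cell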
Experimental: (§1) In the second SPR experiment, single-cycle kinetic analyses were performed on a Biacore™ T200 instrument (GE Healthcare) at 25° C. in HBS-EP buffer. […] An ethanolamine-blocked flow cell served as the reference. Monomeric VHHs at concentrations ranging from 0.6 to 50 nM were injected over the EGFR surfaces in HBS-EP buffer at a flow rate of 40 μL/min. The contact time was 180 s and the dissociation time was 600 s. The EGFR surfaces were regenerated using a 10 s pulse of 10 mM glycine, pH 1.5.

[3] = target: T2, mouse EGFR-Fc fusion protein (mouse, UniProt Q01279 25-647); assay: SPR single-cycle, VHH over amine-coupled mouse EGFR-Fc
T2 construct: Bought; not shown: Fc part of the bought fusion

[4] = target: T3, rhesus EGFR-Fc fusion protein (rhesus, UniProt P55245 25-645); assay: ELISA, VHH titrated from about 0.5 to 1000 ng/mL, OD 450 nm
T3 construct: Bought; not shown: Fc part of the bought fusion

[5] = target: T1, human EGFR-Fc fusion protein; assay: as above
[6] = target: T4, recombinant 6xHis-tagged human EGFR ectodomain (human, UniProt P00533 25-645); assay: SPR (value of Table 2 repeated in Table 6)
T4 construct: extracellular domain; Bought; also called recombinant human EGFR; EGFR extracellular domain; not shown: 6xHis tag

[7] = target: recombinant human EGFRvIII ectodomain (human) (UniProt P00533); assay: SPR multi-cycle, VHH over amine-coupled EGFRvIII ectodomain
[8] = target: T4, recombinant 6xHis-tagged human EGFR …; assay: SPR multi-cycle, VHH over amine-coupled EGFR ectodomain
Experimental: (§2) In the first SPR experiment, multi-cycle kinetic analyses were performed on a Biacore™ 3000 instrument (GE Healthcare) at 25° C. in HBS-EP buffer [10 mM HEPES, pH 7.4, containing 150 mM NaCl, 3 mM EDTA and 0.005% (w/v) surfactant P20]. […] An ethanolamine-blocked flow cell served as the reference. Monomeric VHHs at concentrations ranging from 0.1 to 100 nM were injected over the EGFR and EGFRvIII surfaces in HBS-EP buffer at a flow rate of 20 μL/min. […] Contact times were 180-300 s and dissociation times were 300-600 s.

[9] = target: T4, recombinant 6xHis-tagged human EGFR …; assay: SPR multi-cycle, EGFR ectodomain over amine-coupled NRC-sdAb032
Experimental: as §2

[10] = target: T3, rhesus EGFR-Fc fusion protein; assay: SPR single-cycle, VHH over amine-coupled rhesus EGFR-Fc
Experimental: as §1

[11] = target: T2, mouse EGFR-Fc fusion protein; assay: ELISA, VHH titrated from about 0.5 to 1000 ng/mL, OD 450 nm
[12] = target: T3, rhesus EGFR-Fc fusion protein; assay: SPR single-cycle, VHH over amine-coupled rhesus EGFR-Fc; remark: listed apart in the source
Experimental: as §1

B1: NRC-sdAb028 (VHH)
VHH: EVQLVESGGGLVQPGGSLRLSCTVSGSFFSRDAMGWHRQAPGKQREMVAGISSGGLSNHAESVKGRFTISRDNSKNTVYLQMNNLKPEDTAVYYCSIYEDGVWTSWGQGTQVTVSS
notes: Monomeric llama VHH; in ELISA a version with biotin acceptor peptide and 6xHis was used; also called EGFR10; not shown: C-terminal c-Myc and 6xHis tags
Work on B1 yielded a Kd [1] of 6 nM, a koff [1] of 0.00055 s⁻¹ and a kon [1] of 92000 M⁻¹ s⁻¹. It also gave a Kd [2] of 6 nM, a koff [2] of 0.00055 s⁻¹ and a kon [2] of 92000 M⁻¹ s⁻¹. For the same binder, the Kd [3] was 11.6 nM, the koff [3] was 0.0075 s⁻¹ and the kon [3] was 650000 M⁻¹ s⁻¹. For the same binder, the binding result [4] was “no binding (tested: 1000 ng/mL)”, the “EC50 (read off the curve)” value [5] was ~7 ng/mL and the Kd [6] was 9 nM. It also gave a Kd [7] of 8.6 nM, a koff [7] of 0.00084 s⁻¹ and a kon [7] of 98000 M⁻¹ s⁻¹. The Kd [8] was 9 nM, the koff [8] was 0.00075 s⁻¹ and the kon [8] was 84000 M⁻¹ s⁻¹.

B2: NRC-sdAb032 (VHH)
VHH: QVKLEESGGGLVQPGGSLRLSCSASGSISSISVMGWYRQAPGKQRELVARITSGGISNYVDSVKGRFTISGDSAKNIVYLQMNSLKPEDTAVYYCYMYVHVGYWVDYWGQGTQVTVSS
notes: Monomeric llama VHH; in ELISA a version with biotin acceptor peptide and 6xHis was used; also called EVE46; not shown: C-terminal c-Myc and 6xHis tags
B2 showed a Kd [1] of 6.9 nM, a koff [1] of 0.0025 s⁻¹ and a kon [1] of 360000 M⁻¹ s⁻¹. For the same binder, the Kd [2] was 6.9 nM, the koff [2] was 0.0025 s⁻¹ and the kon [2] was 360000 M⁻¹ s⁻¹. For the same binder, the Kd [9] was 12.9 nM, the koff [9] was 0.0013 s⁻¹ and the kon [9] was 100000 M⁻¹ s⁻¹. For the same binder, the Kd [10] was 8.1 nM, the binding result [11] was “no binding (tested: 1000 ng/mL)” and the koff [12] was 0.0039 s⁻¹. For the same binder, the kon [12] was 480000 M⁻¹ s⁻¹.
